# Reference: US20180112193A1, “CSF1 THERAPEUTICS” (University Court Of The University Of Edinburgh, priority 2013, published 2018)
# Columns and labels:
# [1] = system: weaner pigs; assay: Preliminary experiment on weaners, circulating monocytes; assay type: in vivo, pig; details: three treatments with 0.4 mg/kg every alternative day
# Procedure: Note that the peak plasma level obtained is only around 100 ng/ml, and it is completely cleared by 20 hours. By contrast, Fc-CSF-1 (FIGS. 9B and C) attains 100-fold higher plasma concentrations and remains elevated for up to 72 hours. A preliminary experiment on weaners determined that three treatments with 0.4 mg/kg with Fc-CSF-1 every alternative day produced a 2-3 fold increase in circulating monocyte numbers.
# [2] = system: Ba/F3 CS1R reporter cell line; assay: Proliferation of Ba/F3 CS1R reporter cell line (MTT cell viability assay); assay type: cell-based, porcine; details: data not shown
# Procedure: Stable Ba/F3 cells expressing porcine CSF-1R were maintained in culture with complete RPMI supplemented with either 10^4 Units/ml rh-CSF-1 or 10% IL-3 conditioned medium prior to MTT assay. 2×10^4 cells/well (Ba/F3 cells and Ba/F3 transfectants), or 5×10^4 cells/well (pig BMM) of a 96 well plate were plated in triplicate or quadruplicate and appropriate treatment (serial dilutions of rh-CSF-1 or porcine Fc CSF-1 were added to make a total volume of 100 μl per well. Cells were incubated for 48 hours at 37° C. with 5% CO2. For Ba/F3 cells, 10 μl of MTT (Sigma Aldrich M5655) stock solution (5 mg/ml) was added directly to each well to achieve a final concentration of 0.5 mg/ml and incubated at 37° C. for 3 hours prior to solubilisation overnight. For adherent mouse BMM cells, culture medium was replaced with 50 μl of 1 mg/ml MTT solution and incubated for 1 hour at 37° C. MTT solution was removed and tetrazolium salt solubilised with 100 μl of solubilisation agent (0.1M HCL, 10% Triton x-100 and isopropanol) followed by incubation at 37° C. with 5% CO2 for 10 minutes. Plates were read at 570 nm with reference wavelength of 405 nm.
# Mice were injected with Fc-CSF-1 subcutaneously on each of 4 days and sacrificed on the 5th day. The mice were csf1r-EGFP (MacGreen) mice on the C57BI/6 background. […]
# [3] = Pig PK (plasma ELISA); assay type: in vivo; details: weaner pigs; 1.2 mg/kg IV and SC
# Procedure: Porcine CSF-1 Fc-fusion plasma levels were detected using an in-house developed conventional sandwich ELISA utilizing commercially available antibodies. Capture antibody was Abcam ab9693 (0.3 μg/mL) and detection antibody was Rabbit anti-pig IgG (Fc) biotinylated Alpha Diagnostic 90440 (1:5000 dilution). Standard protein was generated and purified in-house (lot 2/24/11 JAS). Standards were added to each plate along with the samples resulting in an 11 point standard range of 2700 ng/mL to […]. This allowed for quantitation of each sample to a standard curve on every assay plate. Assay detection was done using Pierce High Sensitivity Streptavidin-HRP (1:10,000 dilution) and TMB Microwell Peroxidase Substrate System solution (KPL).
# Weaner age barrows (<14 kg) were assigned to three treatment groups receiving a single intravenous (IV) or subcutaneous (SC) dose as follows. Three pigs received 0.5 mg/kg CSF-1 non-fusion dosed SC. Two pigs received 1.2 mg/kg CSF-1:Fc fusion dosed IV. Two pigs received 1.2 mg/kg CSF-1:Fc dosed SC. One ml plasma samples were obtained via the V. jugularis in EDTA anticoagulant tubes and placed on ice until centrifuged. The plasma was transferred to sterile tubes stored at ≤−10° C. until analysis. Serial plasma samples were obtained from each animal at pre-dose and 5 minutes, 30 minutes, 1 hour, 2 hours, 4 hours, 6 hours, 8, hours, 24 hours, 48 hours, and 72 hours post-dose. CSF-1 and CSF-1:Fc fusion protein levels were quantitated in plasma using ELISA assays.
molecule,measurement,setting,value
"Fc-CSF-1: active fragment of porcine CSF-1 (SEQ ID NO:1) linked to the hinge-CH3 region of porcine IgG1a (SEQ ID NO:2) (protein, listed as Sus scrofa) SENCSHMIGDGHLKVLQQLIDSQMETSCQIAFEFVDQEQLTDPVCYLKKAFLQVQDILDETMRFRDNTPNANVIVQLQELSLRLNSCFTKDYEEQDKACVRTFYETPLQLLEKIKNVFNETKNLLKKDWNIFSKNCNNSFAKCSSQHERQPEGRGTKTKPPCPICPGCEVAGPSVFIFPPKPKDTLMISQTPEVTCVVVDVSKEHAEVQFSWYVDGVEVHTAETRPKEEQFNSTYRVVSVLPIQHQDWLKGKEFKCKVNNVDLPAPITRTISKAIGQSREPQVYTLPPPAEELSRSKVTVTCLVIGFYPPDIHVEWKSNGQPEPEGNYRTTPPQQDVDGTFFLYSKLAVDKARWDHGETFECAVMHEALHNHYTQKSISKTQGK",increase in circulating monocyte numbers,[1],2-3 fold
same,biological activity (proliferation) compared with recombinant pig CSF-1,[2],no difference in biological activity
same,plasma concentrations relative to unmodified CSF-1,[3],100 fold
same,time plasma level remains elevated,[3],up to 72 hours
